The target of assay [1] is T1, Murine CD40L (form not stated) (murine, UniProt P27548 112-260, limits assumed).
T1 construct: also called MuCD40L
T1 sequence (looked up): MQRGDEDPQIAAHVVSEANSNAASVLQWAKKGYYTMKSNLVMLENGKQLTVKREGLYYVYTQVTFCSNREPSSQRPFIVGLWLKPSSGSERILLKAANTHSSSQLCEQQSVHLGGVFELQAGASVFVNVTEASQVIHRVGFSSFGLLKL
The assay is described as follows: biosensor competition: inhibition of murine CD40L binding to immobilized murine CD40 receptor.

The target in assay [2] is Murine CD40L on cells (D10.G4 / D10G4.1 cells; activated murine T cells) (murine) (UniProt P27548). As to the kind of experiment: cell-based or functional assay.
In assay [3] the target is Murine MegaCD40L (Axxora, cat. ALX522120) (murine) (UniProt P27548). As to the kind of experiment: cell-based or functional assay.
The target of assay [4] is T1, Murine CD40L (form not stated). As to the kind of experiment: method not stated (figure legend).
Assay [5] has as its target T2, Recombinant human CD40L (Human MegaCD40L; Axxora) (human, UniProt P29965 47-261, biotinylated with EZ-Link sulfo-NHS-biotin where used in the plate binding assay).
T2 sequence (looked up): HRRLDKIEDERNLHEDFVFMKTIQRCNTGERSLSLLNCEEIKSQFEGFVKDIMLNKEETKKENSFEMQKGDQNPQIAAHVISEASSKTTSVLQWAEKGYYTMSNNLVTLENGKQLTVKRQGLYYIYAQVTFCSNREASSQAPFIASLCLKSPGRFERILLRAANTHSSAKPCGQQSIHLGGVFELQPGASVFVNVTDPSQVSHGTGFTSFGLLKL
As to the kind of experiment: cell-based or functional assay.

In assay [6] the target is T3, Human CD40L, membrane form, on cells (Jurkat D1.1 cells; activated primary human T cells) (human, UniProt P29965 1-261).
T3 sequence: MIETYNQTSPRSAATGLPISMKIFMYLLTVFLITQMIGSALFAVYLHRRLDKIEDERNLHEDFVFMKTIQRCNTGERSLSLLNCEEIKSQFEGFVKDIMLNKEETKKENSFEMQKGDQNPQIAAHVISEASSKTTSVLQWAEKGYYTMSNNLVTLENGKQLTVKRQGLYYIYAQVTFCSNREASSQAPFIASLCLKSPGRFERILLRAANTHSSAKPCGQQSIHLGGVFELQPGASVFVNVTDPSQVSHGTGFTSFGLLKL
As to the kind of experiment: cell-based or functional assay.

The target in assay [7] is T2, Recombinant human CD40L (Human …). The assay is described as follows: ProteOn XPR36 biosensor, human MegaCD40L immobilized on GLC chip, Tn3 as analyte, equilibrium analysis, 25 C. The procedure: ProteOn phosphate buffered saline with 0.005% Tween 20, pH 7.4 (PBS/Tween) was used as running buffer. Human MegaCD40L was immobilized on the chip at a surface density of approximately 2300 RU. […] Samples of each concentration were injected into the six analyte channels at a flow rate of 30 μl/min. for 300 seconds. The Kd was determined by using the equilibrium analysis setting within the ProteOn software.

B1: Clone M13 (murine CD40L-specific Tn3 scaffold) (designed binder)
chain: IEVKDVTDTTALITWHDAFGYDFGCELTYGIKDVPGDRTTIDLPDHFHNYSIGNLKPDTEYEVSLICANDHGFDSNPAKETFTT
notes: also called monovalent M13
B1 gave an IC50 in assay [1] of 71 nM. In other words, the double-digit nanomolar range.

B2: Clone M31 (affinity optimized variant of M13, murine CD40L-specific) (designed binder)
chain: IEVKDVTDTTALITWHDPSGYDFWCELTYGIKDVPGDRTTIDLPDHFHNYSIGNLKPDTEYEVSLICANDHGFDSYPAKETFTT
Regarding B2, in assay [2], the IC50, inhibition of CD86 up regulation on CD19+ B cells (PBMC stimulated with D10.G4 cells) was 1.5 nM and the fold increase in potency in the PBMC assay over M13 came out at 20 fold. This molecule came in with an IC50, neutralization of murine CD40L-induced NFκB activity (luciferase reporter cells) in assay [3] of 1.6 nM. The “fold affinity improvement over M13” value in assay [4] was around 20 fold.

B3: Clone 342 - Affinity Mature variant (w/WT FG loop) (designed binder)
chain: AIEVKDVTDTTALITWSDDFGEYVWCELTYGIKDVPGDRTTIDLWYHHAHYSIGNLKPDTEYEVSLICRRGDMSSNPAKETFTTGGGTLGHHHHHHHH
notes: Secreted His8-tagged form
As to B3, the “IC50, inhibition of human CD40L-induced NFκB activity (luciferase reporter HEK293 cells)” value in assay [5] is 1.5 nM. Besides, the “PBMC IC50” value in assay [6] was 0.7 nM. In assay [7], the dissociation constant Kd amounted to 1.4 nM.

Usually IC50 stands for the midpoint of a concentration-inhibition curve. Usually Kd stands for the equilibrium constant for the complex coming apart.

(Values after US20150098955A1 (VIELA BIO, published 2015).)
